Laboratory results as given in US20240067944A1 (published 2024).

Legend:
[1] = biological target: T1, human plasma-derived FX (Haematologic Technologies Inc, USA) (human, UniProt P00742 41-179; P00742 183-488); assay: SPR, FX captured on immobilised anti-GLA-FX antibody, steady state analysis, 25 C
T1 construct: also called coagulation Factor X; human FX
Description: Briefly, an anti-GLA-FX, prepared recombinantly as described above, was immobilised on a CM4 sensor chip or a Xantec HLC200M using standard amine coupling chemistry at pH 5. 10 nM FX (Haematologic Technologies, USA) was injected at a flow rate of 10 μL/min for 30 seconds. Subsequently 1000, 100, 10, 1, 0.1 and 0 nM of VHH polypeptide compound, according to Table 9, below were injected at a flow rate of 50 μL/min for 200 seconds to allow for binding to FX followed by a flow of 10 minutes with a running buffer (10 mM HEPES, 150 mM NaCl, 5 mM CaCl₂), 0.05% (v/v) Surfactant P20, 1 mg/mL bovine serum albumin, pH 7.4) injection allowing for dissociation from FX. The running buffer was also used for dilution of anti-FX VHH polypeptide compounds. Regeneration of the chip was achieved using a regeneration buffer consisting of 50 mM EDTA in running buffer, 30 seconds contact time, and a 30 μL/min flow rate. The binding data were collected at 25° C. and were analysed according to a 1:1 model using BiaEvaluation 4.1 supplied by the manufacturer (Biacore AB, Uppsala or Bruker Analyser).
(§1) Therefore, the reported KD values are determined based on steady state analysis.

[2] = biological target: T1, human plasma-derived FX (Haematologic …); assay: cell-based or functional assay
[3] = biological target: T2, Benefix (Pfizer Inc, USA), FIX (human, UniProt P00740 47-461); assay: SPR, FIX (Benefix) captured on immobilised anti-GLA-FIX antibody, steady state analysis, 25 C
T2 construct: Bought product; also called FIX (Benefix®)
Description: Briefly, anti-GLA-FIX, prepared recombinantly as described above, was immobilised on a CM4 sensor chip or a Xantec HLC200M using standard amine coupling chemistry at pH 5. FIX (10 nM) was injected at a flow rate of 10 μL/min for 1 minute. Subsequently 1000, 100, 10, 1, 0.1 and 0 nM of VHH polypeptide compound were injected at a flow rate of 30 μL/min for 4 minutes to allow for binding to the FIX (Benefix®) followed by a flow of 5 minutes running buffer (10 mM HEPES, 150 mM NaCl, 5 mM CaCl₂), 0.05% (v/v) Surfactant P20, 1 mg/mL bovine serum albumin, pH 7.4) injection allowing for dissociation from FIX. The running buffer was also used for dilution of anti-FIX VHH polypeptide compounds. Regeneration of the chip was achieved using a regeneration buffer consisting of 50 mM EDTA in running buffer, 30 seconds contact time, and a 30 μL/min flow rate. The binding data were collected at 25° C. and were analysed according to a 1:1 model using BiaEvaluation 4.1 supplied by the manufacturer (Biacore AB, Uppsala).
as §1

T1 sequence (P00742 41-179, chain 1 of 2): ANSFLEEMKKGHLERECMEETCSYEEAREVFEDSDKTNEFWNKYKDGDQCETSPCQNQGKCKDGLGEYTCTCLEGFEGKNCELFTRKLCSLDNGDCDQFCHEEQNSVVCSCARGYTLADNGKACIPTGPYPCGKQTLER
T1 sequence (P00742 183-488, chain 2 of 2): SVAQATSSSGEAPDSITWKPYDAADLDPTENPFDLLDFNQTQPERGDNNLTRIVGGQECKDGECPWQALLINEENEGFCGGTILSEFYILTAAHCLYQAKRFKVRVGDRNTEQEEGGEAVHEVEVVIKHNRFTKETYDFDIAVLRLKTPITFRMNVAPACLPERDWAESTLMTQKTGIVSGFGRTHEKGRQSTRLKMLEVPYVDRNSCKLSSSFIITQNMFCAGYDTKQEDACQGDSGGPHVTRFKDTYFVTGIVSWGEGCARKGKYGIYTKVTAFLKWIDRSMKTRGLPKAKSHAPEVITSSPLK
T2 sequence (P00740 47-461 T194A limits assumed): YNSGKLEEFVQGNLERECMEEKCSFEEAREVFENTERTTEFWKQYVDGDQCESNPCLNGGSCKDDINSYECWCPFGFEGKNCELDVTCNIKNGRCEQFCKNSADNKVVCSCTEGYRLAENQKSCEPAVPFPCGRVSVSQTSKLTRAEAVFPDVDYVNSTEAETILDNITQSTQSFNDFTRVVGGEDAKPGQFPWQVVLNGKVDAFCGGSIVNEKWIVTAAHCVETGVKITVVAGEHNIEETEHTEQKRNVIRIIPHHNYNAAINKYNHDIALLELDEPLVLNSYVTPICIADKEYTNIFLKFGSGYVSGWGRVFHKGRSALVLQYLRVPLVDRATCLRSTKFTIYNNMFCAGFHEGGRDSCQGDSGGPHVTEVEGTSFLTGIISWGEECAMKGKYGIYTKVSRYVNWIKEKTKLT

| Binder | Kd [1] [µM] | KM (nM) of FX activation by 0.1 nM FIXa on phospholipid vesicles with 5 nM compound [2] [nM] | kcat/KM (1/(min * nM)) of FX activation by 0.1 nM FIXa with 5 nM compound [2] [M⁻¹ s⁻¹] | Kd [3] [µM] |
| --- | --- | --- | --- | --- |
| Cmpd #8 (anti-FX/anti-FIX(a) VHH polypeptide derivative) (bispecific antibody, C16 diacid protractor (P2) via linker LP1 on Cys4 and Cys6 in C-term extension (SEQ ID NO: 9), Single chain of two VHH: anti-FX (N-terminal) and anti-FIX(a) (C-terminal)) DVQLVESGGGVVQPGGSLQLSCAASGGTKSRYAMGWFRQAPGQEREFVAAISRRGGSTNYADSVKGRFTISRDNSKNTVYLQMDSLRPEDTALYYCAADDSVGDGYLDYWGQGTLVTVSSGQAPGQEVQLVESGGGVVQPGGSLQLSCAASGRTFNIYTMSWFRQAPGQEREFVAGLRWTDSSTEYADSVKGRFTISRDNSKNTVYLQMDSLRPEDTALYYCAADRSFLFAQALGATKNYEYWGQGTLVTVSSGQACPC | 0.096 | 4.8 | 4.5e+06 | 0.0025 |
| Cmpd #7 (anti-FX/anti-FIX(a) VHH polypeptide derivative) (bispecific antibody, C16 diacid protractor (P2) via linker LP1 on Cys4 and Cys6 in C-term extension (SEQ ID NO: 9), Single chain of two VHH: anti-FX (N-terminal) and anti-FIX(a) (C-terminal)) DVQLVESGGGVVQPGGSLQLSCAASGGTKSRYAMGWFRQAPGQEREFVAAISRRGGSTNYADSVKGRFTISRDNSKNTVYLQMDSLRPEDTALYYCAADDSVGDGYLDYWGQGTLVTVSSGQAPGQEVQLVESGGGVVQPGGSLRLSCAASGRTFNIYTMSWFRQAPGQEREFVAGLRWTDSSTEYADSVKGRFTISRDNSKNTVYLQMNSLRPEDTALYYCAADRSFLFAQALGATKNYEYWGQGTLVTVSSGQACPC | 0.082 |  |  | 0.0023 |
| Cmpd #10 (anti-FX/anti-FIX(a) VHH polypeptide derivative) (bispecific antibody, C16 diacid protractor (P2) via linker LP1 on Cys4 and Cys6 in C-term extension (SEQ ID NO: 9), Single chain of two VHH: anti-FX (N-terminal) and anti-FIX(a) (C-terminal)) DVQLVESGGGVVQPGGSLQLSCAASGGTKRRLAMGWFRQAPGQEREWVAAISRRGGSTNYADSVKGRFTISRDNSKNTVYLQMDSLRPEDTALYYCAADDSVGDGYLDYWGQGTLVTVSSGQAPGQEVQLVESGGGVVQPGGSLRLSCAASGRTFNIYTMSWFRQAPGQEREFVAGLRWTDSSTEYADSVKGRFTISRDNSKNTVYLQMNSLRPEDTALYYCAADRSFLFAQALGATKNYEYWGQGTLVTVSSGQACPC | 0.19 |  |  | 0.0055 |
| Cmpd #9 (anti-FX/anti-FIX(a) VHH polypeptide derivative) (bispecific antibody, C16 diacid protractor (P2) via linker LP1 on Cys4 and Cys6 in C-term extension (SEQ ID NO: 9), Single chain of two VHH: anti-FX (N-terminal) and anti-FIX(a) (C-terminal)) DVQLVESGGGVVQPGGSLQLSCAASGGTKSRYAMGWFRQAPGQEREFVAAISRRGGSTNYADSVKGRFTISRDNSKNTVYLDMDDLRPEDTALYYCAADDSVGDGYLDYWGQGTLVTVSSGQAPGQEVQLVESGGGVVQPGGSLRLSCAASGRTFNIYTMSWFRQDPGQEREFVAGLRWTDSSTEYADSVKGRFTISRDNSKNTVYLQMNSLRPEDTALYYCAADRSFLFAQALGATKNYEYWGQGTLVTVSSGQACPC | 0.07 |  |  | 0.0011 |
| Cmpd #13 (anti-FX/anti-FIX(a) VHH polypeptide derivative) (bispecific antibody, C16 diacid protractor (P2) via linker LP1 on Cys4 and Cys6 in C-term extension (SEQ ID NO: 9), Single chain of two VHH: anti-FX (N-terminal) and anti-FIX(a) (C-terminal); also called VHH1.13-L1-2-VHH2.13-E) DVQLVESGGGVVQPGGSLQLSCAASGGTKRRLAMGWFRQAPGQEREWVAAISRRGGSTNYADSVKGRFTISRDNSKNTVYLDMDDLRPEDTALYYCAADDSVGDGYLDYWGQGTLVTVSSGQAPGQEVQLVESGGGVVQPGGSLQLSCAASGRTFNIYTMSWFRQDPGQEREFVAGLRWTDSSTEYADSVKGRFTISRDNSKNTVYLQMDSLRPEDTALYYCAADRSFLFAQALGATKNYEYWGQGTLVTVSSGQACPC | 0.3 | 6.2 | 3e+06 | 0.002 |

Now those with a lower Kd [1], led by results:

| Kd [1] [µM] | KM (nM) of FX activation by 0.1 nM FIXa on phospholipid vesicles with 5 nM compound [2] [nM] | kcat/KM (1/(min * nM)) of FX activation by 0.1 nM FIXa with 5 nM compound [2] [M⁻¹ s⁻¹] | Kd [3] [µM] | Binder |
| --- | --- | --- | --- | --- |
| 0.042 |  |  | 0.0064 | Cmpd #11 (anti-FX/anti-FIX(a) VHH polypeptide derivative) (bispecific antibody, C16 diacid protractor (P2) via linker LP1 on Cys4 and Cys6 in C-term extension (SEQ ID NO: 9), Single chain of two VHH: anti-FX (N-terminal) and anti-FIX(a) (C-terminal)) DVQLVESGGGVVQPGGSLQLSCAASGGTKRRLAMGWFRQAPGQEREFVAAISRRGGSTNYADSVKGRFTISRDNSKNTVYLDMDDLRPEDTALYYCAADDSVGDGYLDYWGQGTLVTVSSGQAPGQEVQLVESGGGVVQPGGSLRLSCAASGRTFNIYTMSWFRQDPGQEREFVAGLRWTDSSTEYADSVKGRFTISRDNSKNTVYLQMNSLRPEDTALYYCAADRSFLFAQALGATKNYEYWGQGTLVTVSSGQACPC |
| 0.026 |  |  | 0.0078 | Cmpd #12 (anti-FX/anti-FIX(a) VHH polypeptide derivative) (bispecific antibody, C16 diacid protractor (P2) via linker LP1 on Cys4 and Cys6 in C-term extension (SEQ ID NO: 9), Single chain of two VHH: anti-FX (N-terminal) and anti-FIX(a) (C-terminal); also called VHH1.12-L1-2-VHH2.12-E) DVQLVESGGGVVQPGGSLQLSCAASGGTKRRLAMGWFRQAPGQEREFVAAISRRGGSTNYADSVKGRFTISRDNSKNTVYLDMDDLRPEDTALYYCAADDSVGDGYLDYWGQGTLVTVSSGQAPGQEVQLVESGGGVVQPGGSLQLSCAASGRTFNIYTMSWFRQDPGQEREFVAGLRWTDSSTEYADSVKGRFTISRDNSKNTVYLQMDSLRPEDTALYYCAADRSFLFAQALGATKNYEYWGQGTLVTVSSGQACPC |
